Source: US20250296971A1, “GASTRIC INHIBITORY PEPTIDE RECEPTOR LIGANDS” (priority 2021, published 2025)
*1 amine or outer side, *2 acyl side, *3 side chain or, on linkers, in order; H or OH if unused. Bridges are numbered along the chain shown (N, C = ends). Where no end group is shown, it is not given here. Side-chain parts run from the residue outwards. [ ]: non-standard residue; d: D form. The star is where a group is joined. Ttds = 1,13-diamino-4,7,10-trioxatridecan-succinamic acid, NCCCOCCOCCOCCCNC(=O)CCC(=O)*; DOTA(Ga) = O=C1CN2CCN3CCN(CC(=O)*)CCN(CC2)CC(=O)[O][Ga]([O]1)[O]C(=O)C3; DOTA(In) = O=C1CN2CCN3CCN(CC(=O)*)CCN(CC2)CC(=O)[O][In]([O]1)[O]C(=O)C3; DOTA(Lu) = O=C1CN2CCN3CCN(CC(=O)*)CCN(CC2)CC(=O)[O][Lu]([O]1)[O]C(=O)C3; NH(1-deoxy-D-glucityl) = OC[C@@H](O)[C@@H](O)[C@H](O)[C@@H](O)CN*; dE(AGLU) = D-glutamic acid bearing 1-amino-1-deoxy-D-glucitol; Pro(trans-4-NH2) = O=C([C@@H]1C[C@@H](N[*:3])CN1[*:1])[*:2]; DOTA = O=C(O)CN1CCN(CC(=O)O)CCN(CC(=O)*)CCN(CC(=O)O)CC1; 2Lut = 2,6-lutidylidene bridge between two thiols; Trp(5-Br) = N[C@@H](Cc1c[nH]c2ccc(Br)cc12)C(=O)O; Trp(5-Cl) = N[C@@H](Cc1c[nH]c2ccc(Cl)cc12)C(=O)O; Pyridine(2,6-diCH2) = c1cc(C[*:1])nc(C[*:2])c1; APAc = 4-amino-1-carboxymethylpiperidine; Pro(4S-NH2) = N[C@@H]1CN[C@H](C(=O)O)C1; Phe(2-Cl) = N[C@@H](Cc1ccccc1Cl)C(=O)O; mXylylene = c1cc(C[*:1])cc(C[*:2])c1; Glutaryl = O=C(CCCC(=O)[*:2])[*:1]; AGLU = 1-amino-1-deoxy-D-glucitol; dDap(NTASEROL) = not defined here; Hyp = O=C(O)[C@@H]1C[C@@H](O)CN1; Cysteamide = C(CS[*:3])N[*:1]; dGlu(AGLU) = not defined here; Suc = O=C(CCC(=O)[*:2])[*:1]; GLUSEROL = not defined here; NTASEROL = not defined here; hSer = N[C@@H](CCO)C(=O)O; Api = NC1(C(=O)O)CCNCC1; Thp = NC1(C(=O)O)CCOCC1; Aib = CC(C)(N)C(=O)O

B1: HO-Succinyl-Trp-5Clw-Tap-Glu-leu-[Cys(2Lut)-Apc-Leu-Ile-Cys]-APAc-glu(AGLU)-Lys(DOTA)-NH2 (peptide)
peptide: W[Trp(5-Cl)][Pro(trans-4-NH2)]E[dL]C[Api]LIC-{APAc-dE(AGLU)-K(DOTA)-NH2}
modifications: linker 6-10 via 2Lut; not fully specified (N-terminus); printed as HO-Succinyl-Trp-5Clw-Tap-Glu-leu-[Cys(2Lut)-Apc-Leu-Ile-Cys]-APAc-glu(AGLU)-Lys(DOTA)-NH2
B2: AGLU-Glutar-Asp-Trp-5Clw-Tap-Glu-leu-[Cys(2Lut)-Apc(DOTA)-Leu-Ile-Cys]-APAc-glu(AGLU)-NH2 (peptide)
peptide: {AGLU-Glutaryl}-DW[Trp(5-Cl)][Pro(trans-4-NH2)]E[dL]C[Api](DOTA)LIC-{APAc-dE(AGLU)-NH2}
modifications: linker 7-11 via Pyridine(2,6-diCH2)
B3: Ac-Hse-Trp-5Brw-Hyp-Glu-leu-[Cys(2Lut)-Thp-Leu-Ile-Cys]-NH2 (peptide)
peptide: Ac-[hSer]W[Trp(5-Br)][Hyp]E[dL]C[Thp]LIC-NH2
modifications: linker 7-11 via Pyridine(2,6-diCH2)
SMILES: CC[C@H](C)[C@@H]1NC(=O)[C@H](CC(C)C)NC(=O)C2(CCOCC2)NC(=O)[C@@H](NC(=O)[C@@H](CC(C)C)NC(=O)[C@H](CCC(=O)O)NC(=O)[C@@H]2C[C@@H](O)CN2C(=O)[C@H](Cc2c[nH]c3ccc(Br)cc23)NC(=O)[C@H](Cc2c[nH]c3ccccc23)NC(=O)[C@H](CCO)NC(C)=O)CSCc2cccc(n2)CSC[C@@H](C(N)=O)NC1=O
B4: DOTA-glu(AGLU)-APAc-Asp-Trp-5Clw-Hyp-Glu-leu-[Cys(2Lut)-Thp-Leu-Ile-Cys]-APAc-glu(AGLU)-NH2 (peptide)
peptide: {DOTA-dE(AGLU)-APAc}-DW[Trp(5-Cl)][Hyp]E[dL]C[Thp]LIC-{APAc-dE(AGLU)-NH2}
modifications: linker 7-11 via Pyridine(2,6-diCH2)
B5: AGLU-Glutar-Asp-Trp-5Clw-Tap-Glu-leu-[Cys(2Lut)-Apc(DOTA)-Leu-Ile-Cys]-APAc-GLUSEROL (peptide)
peptide: {AGLU-Glutaryl}-DW[Trp(5-Cl)][Pro(trans-4-NH2)]E[dL]C[Api](DOTA)LIC-{APAc-GLUSEROL}
modifications: linker 7-11 via Pyridine(2,6-diCH2); reading uncertain
B6: AGLU-Glutar-Asp-Trp-5Clw-Hyp-Glu-leu-[Cys(2Lut)-Apc(DOTA)-Leu-Ile-AET] (peptide)
peptide: {AGLU-Glutaryl}-DW[Trp(5-Cl)][Hyp]E[dL]C[Api](DOTA)LI[Cysteamide]
modifications: thioether (positions not given here) via Pyridine(2,6-diCH2); not fully specified (bridges); printed as AGLU-Glutar-Asp-Trp-5Clw-Hyp-Glu-leu-[Cys(2Lut)-Apc(DOTA)-Leu-Ile-AET]
B7: AGLU-Glutar-Asp-Trp-5Clw-Hyp-Glu-leu-[Cys(2Lut)-Apc(DOTA)-Leu-Ile-Cys]-APAc-glu(AGLU)-NH2 (peptide)
peptide: DWXXEXCXLIC
modifications: N-term AGLU-Glutar; 5Clw; Hyp; leu (D-Leu); thioether cycle [Cys(2Lut)..Cys]; Apc(DOTA); C-term APAc-glu(AGLU)-NH2
B8: NTASEROL-Asp-Trp-5Clw-Tap-Glu-leu-[Cys(2Lut)-Apc(DOTA)-Leu-Ile-Cys]-APAc-GLUSEROL (peptide)
peptide: {NTASEROL}-DW[Trp(5-Cl)][Pro(trans-4-NH2)]E[dL]C[Api](DOTA)LIC-{APAc-GLUSEROL}
modifications: linker 7-11 via Pyridine(2,6-diCH2); reading uncertain
B9: AGLU-Glutar-Asp-Trp-5Clw-Hyp-Glu-leu-[Cys(2Lut)-Thp-Leu-Ile-Cys]-APAc-glu(AGLU)-Lys(DOTA)-NH2 (peptide)
peptide: {AGLU-Glutaryl}-DW[Trp(5-Cl)][Hyp]E[dL]C[Thp]LIC-{APAc-dE(AGLU)-K(DOTA)-NH2}
modifications: linker 7-11 via Pyridine(2,6-diCH2)
B10: DOTA-Ttds-Asp-Trp-5Clw-4Ap-Glu-leu-[Cys(3MeBn)-Aib-Leu-Ile-AET] (peptide)
peptide: {DOTA-Ttds}-DW[Trp(5-Cl)][Pro(4S-NH2)]E[dL]C[Aib]LI[Cysteamide]
modifications: linker 7-11 via mXylylene
B11: AGLU-Glutar-Asp-Trp-5Clw-Tap-Glu-leu-[Cys(2Lut)-Apc(InDOTA)-Leu-Ile-Cys]-APAc-glu(AGLU)-NH2 (peptide)
peptide: {AGLU-Glutaryl}-DW[Trp(5-Cl)][Pro(trans-4-NH2)]E[dL]C[Api](DOTA(In))LIC-{APAc-dE(AGLU)-NH2}
modifications: linker 7-11 via Pyridine(2,6-diCH2)
B12: Ac-Asp-Ocf-5Clw-Hyp-Glu-leu-[Cys(2Lut)-Thp-Leu-Ile-Cys]-NH2 (peptide)
peptide: Ac-D[Phe(2-Cl)][Trp(5-Cl)][Hyp]E[dL]C[Thp]LIC-NH2
modifications: linker 7-11 via Pyridine(2,6-diCH2)
B13: AGLU-Glutar-Asp-Trp-5Clw-Tap-Glu-leu-[Cys(2Lut)-Apc(GaDOTA)-Leu-Ile-Cys]-APAc-glu(AGLU)-NH2 (peptide)
peptide: {AGLU-Glutaryl}-DW[Trp(5-Cl)][Pro(trans-4-NH2)]E[dL]C[Api](DOTA(Ga))LIC-{APAc-dE(AGLU)-NH2}
modifications: linker 7-11 via Pyridine(2,6-diCH2)
B14: NTASEROL-Asp-Trp-5Clw-Tap-Glu-leu-[Cys(2Lut)-Apc(DOTA)-Leu-Ile-Cys]-APAc-dap(NTASEROL)-NH2 (peptide)
peptide: {NTASEROL}-DW[Trp(5-Cl)][Pro(trans-4-NH2)]E[dL]C[Api](DOTA)LIC-{APAc-dDap(NTASEROL)-NH2}
modifications: linker 7-11 via Pyridine(2,6-diCH2); reading uncertain
B15: AGLU-Glutar-APAc-Asp-Trp-5Clw-Tap(AGLU-Glutar)-Glu-leu-[Cys(2Lut)-Apc(DOTA)-Leu-Ile-Cys]-APAc-glu(AGLU)-NH2 (peptide)
peptide: {AGLU-Glutaryl-APAc}-DW[Trp(5-Cl)][Pro(trans-4-NH2)]([Glutaryl-NH(1-deoxy-D-glucityl)])E[dL]C[Api](DOTA)LIC-{APAc-dE(AGLU)-NH2}
modifications: linker 7-11 via Pyridine(2,6-diCH2)
B16: AGLU-Glutar-Asp-Trp-5Clw-Tap-Glu-leu-[Cys(2Lut)-Apc(LuDOTA)-Leu-Ile-Cys]-APAc-glu(AGLU)-NH2 (peptide)
peptide: {AGLU-Glutaryl}-DW[Trp(5-Cl)][Pro(trans-4-NH2)]E[dL]C[Api](DOTA(Lu))LIC-{APAc-dE(AGLU)-NH2}
modifications: linker 7-11 via Pyridine(2,6-diCH2)
B17: AGLU-Glutar-Asp-Trp-5Clw-Hyp-Glu-leu-[Cys(2Lut)-Apc(InDOTA)-Leu-Ile-Cys]-APAc-glu(AGLU)-NH2 (peptide)
peptide: DWXXEXCXLIC
modifications: N-term AGLU-Glutar; 5Clw; Hyp; leu (D-Leu); thioether cycle [Cys(2Lut)..Cys]; Apc(InDOTA); C-term APAc-glu(AGLU)-NH2
B18: DOTA-Ttds-Asp-Trp-5Clw-Pro-Glu-leu-[Cys(3MeBn)-Apc(Ac)-Leu-Ile-AET] (peptide)
peptide: {DOTA-Ttds}-DW[Trp(5-Cl)]PE[dL]C[Api](Ac)LI[Cysteamide]
modifications: linker (positions not given here) via mXylylene; not fully specified (bridges); printed as DOTA-Ttds-Asp-Trp-5Clw-Pro-Glu-leu-[Cys(3MeBn)-Apc(Ac)-Leu-Ile-AET]
B19: HO-Succinyl-Trp-5Clw-Hyp-Glu-leu-[Cys(2Lut)-Thp-Leu-Ile-Cys]-APAc-glu(AGLU)-Lys(DOTA)-NH2 (peptide)
peptide: Suc-W[Trp(5-Cl)][Hyp]E[dL]C[Thp]LIC-{APAc-dGlu(AGLU)-Lys(DOTA)-NH2}
modifications: linker 6-10 via 2Lut; reading uncertain; also: printed as HO-Succinyl-Trp-5Clw-Hyp-Glu-leu-[Cys(2Lut)-Thp-Leu-Ile-Cys]-APAc-glu(AGLU)-Lys(DOTA)-NH2
B20: DOTA-Ttds-Asp-Trp-5Clw-Pro-Glu-leu-[Cys(3MeBn)-Aib-Leu-Ile-AET] (peptide)
peptide: {DOTA-Ttds}-DW[Trp(5-Cl)]PE[dL]C[Aib]LI[Cysteamide]
modifications: linker (positions not given here) via mXylylene; not fully specified (bridges); printed as DOTA-Ttds-Asp-Trp-5Clw-Pro-Glu-leu-[Cys(3MeBn)-Aib-Leu-Ile-AET]
B21: AGLU-Glutar-Asp-Trp-5Clw-Hyp-Glu-leu-[Cys(2Lut)-Apc(LuDOTA)-Leu-Ile-Cys]-APAc-glu(AGLU)-NH2 (peptide)
peptide: {AGLU-Glutaryl}-DW[Trp(5-Cl)][Hyp]E[dL]C[Api](DOTA(Lu))LIC-{APAc-dE(AGLU)-NH2}
modifications: linker 7-11 via Pyridine(2,6-diCH2)
B22: DOTA-Ttds-Asp-Trp-5Clw-Tap-Glu-leu-[Cys(3MeBn)-Aib-Leu-Ile-AET] (peptide)
peptide: {DOTA-Ttds}-DW[Trp(5-Cl)][Pro(trans-4-NH2)]E[dL]C[Aib]LI[Cysteamide]
modifications: linker 7-11 via mXylylene

Tests used:
[1] = molecular target: human Gastric Inhibitory Peptide Receptor (GIPR) (human) (UniProt P48546); experiment: FACS competition vs biotinylated GIP-057 on CHO-K1-hGIPR cells; category B: pIC50 7.1-8.0
[2] = molecular target: human Gastric Inhibitory Peptide Receptor (human) (UniProt P48546); experiment: FACS competition with GIP-057 on CHO-K1-hGIPR cells; pIC50 category A: >8.0
[3] = molecular target: biotinylated extracellular domain of the human GIP receptor (bioGIPR) (human) (UniProt P48546); experiment: SPR single cycle kinetics, bioGIPR captured on chip; category A: t1/2 >15 min
[4] = molecular target: biotinylated extracellular domain of the human GIP receptor (bioGIPR) (human) (UniProt P48546); experiment: SPR single cycle kinetics, bioGIPR captured on chip; category A: pKD >9.0
[5] = molecular target: human Gastric Inhibitory Peptide Receptor (GIPR) (human) (UniProt P48546); experiment: FACS competition vs biotinylated GIP-057 on CHO-K1-hGIPR cells; category A: pIC50 >8.0

biotinylated extracellular domain of the human GIP receptor (bioGIPR) (human), sequence (P48546 24-138 limits assumed): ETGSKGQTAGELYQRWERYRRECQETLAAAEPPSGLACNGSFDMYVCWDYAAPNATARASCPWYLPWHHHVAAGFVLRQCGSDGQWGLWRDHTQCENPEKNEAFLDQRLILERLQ
human Gastric Inhibitory Peptide Receptor (GIPR) (human), sequence (P48546 22-466 limits assumed): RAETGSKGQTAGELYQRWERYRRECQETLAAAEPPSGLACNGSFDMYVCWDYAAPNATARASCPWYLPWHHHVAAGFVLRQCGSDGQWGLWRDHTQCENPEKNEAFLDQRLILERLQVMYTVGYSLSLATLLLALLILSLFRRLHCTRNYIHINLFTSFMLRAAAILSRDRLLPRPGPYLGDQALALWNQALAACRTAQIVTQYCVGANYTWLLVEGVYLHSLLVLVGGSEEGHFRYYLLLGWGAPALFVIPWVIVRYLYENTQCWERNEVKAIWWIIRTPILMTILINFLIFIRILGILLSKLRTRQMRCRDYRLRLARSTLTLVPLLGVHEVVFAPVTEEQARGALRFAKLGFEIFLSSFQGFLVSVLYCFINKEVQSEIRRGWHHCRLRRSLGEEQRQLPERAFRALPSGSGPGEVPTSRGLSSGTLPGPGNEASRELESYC
human Gastric Inhibitory Peptide Receptor (human), sequence (P48546 22-466 limits assumed): as above

| Molecule | pIC50 [1] [pic50] | pIC50 [2] [pic50] | t1/2 [3] [min] | pKD [4] [pkd] | pIC50 [5] [pic50] |
| --- | --- | --- | --- | --- | --- |
| Ac-Asp-Trp-5Clw-Hyp-Glu-leu-[Cys(2Lut)-Apc(DOTA)-Leu-Phe-Cys]-NH2 (peptide) | 7.1 to 8 |  |  |  |  |
| B1 |  | > 8 | > 15 | > 9 |  |
| B2 |  | > 8 | > 15 | > 9 |  |
| B3 |  | > 8 | > 15 | > 9 |  |
| B4 |  | > 8 | > 15 | > 9 |  |
| B5 |  |  | > 15 | > 9 | > 8 |
| B6 |  | > 8 | > 15 | > 9 |  |
| B7 |  | > 8 | > 15 | > 9 |  |
| B8 |  |  | > 15 | > 9 | > 8 |
| B9 |  | > 8 | > 15 | > 9 |  |
| B10 |  | > 8 | > 15 | > 9 |  |
| B11 |  | > 8 | > 15 | > 9 |  |
| B12 | 7.1 to 8 |  |  |  |  |
| B13 |  | > 8 | > 15 | > 9 |  |
| B14 |  |  | > 15 | > 9 | > 8 |
| B15 |  | > 8 | > 15 | > 9 |  |
| B16 |  | > 8 | > 15 | > 9 |  |
| B17 |  | > 8 | > 15 | > 9 |  |
| B18 |  | > 8 | > 15 | > 9 |  |
| B19 |  | > 8 | > 15 | > 9 |  |
| B20 |  | > 8 | > 15 | > 9 |  |
| B21 |  | > 8 | > 15 | > 9 |  |
| B22 |  | > 8 | > 15 | > 9 |  |
